# The supplement of paper PMC10567573
# ± gives the standard deviation.
# Experiment: protein stability index of a GFP-peptide fusion (GPS, HEK-293T) (PSI 1-6); higher = more stable
# [1] = treatment: DMSO, c terminus: a fixed tail appended
# [2] = treatment: MLN4924 1 uM, 8 h, c terminus: a fixed tail appended
# [3] = treatment: DMSO, c terminus: native
# [4] = treatment: MLN4924 1 uM, 8 h, c terminus: native
# 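Also: 24-mer peptide tiles fused after GFP, lentivirally expressed, FACS-sorted into six equal bins by GFP/DsRed ratio, decoded by Illumina sequencing, PSI is the read-weighted mean bin number.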
Sequence,protein stability index [1],protein stability index [2],protein stability index [3],protein stability index [4]
SLYLLLVSCPKSEVRAKFKFSLLN [SPOPL],2.56 ± 1.2,2.49 ± 0.74,,
SDTTHLVTLGGVLRQQLVVSKELR [KLHL13],3.04 ± 0.069,3.1 ± 0.3,,
SASHRPCVNGDVDKPSEPASEEGS [SMG5],5.49 ± 0.17,5.641 ± 0.046,,
GIAVWNMDVSREEAPQWLESDSCQ [WDFY1],3.81 ± 0.081,3.74 ± 0.28,,
QVTCSILAYLPFKLEKSIDSYYRL [PCDHGA10],2.79 ± 1.1,2.05 ± 0.81,,
LCHCGKAFSHKSMRDRHVNMHLNL [ZBTB22],2.21 ± 0.45,2.32 ± 0.14,,
GFRLAEDGKRCRRKDVCKSTHHGC [MATN2],3.99 ± 0.66,4.09 ± 0.42,,
PARDGVEASAEGPRAVFVLLEERR [TFE3],4.26 ± 0.27,4.23 ± 0.073,,
VQILCHTYWEHWTSQGQVRMRLFG [RTP4],2.45 ± 0.87,2.52 ± 1.1,,
VQTPPGGSEVVPVISPMYQLHKPL [IKZF1],3.77 ± 0.4,3.53 ± 0.23,,
AMDLGFFVVMGVIGGLLGATFNCL [CLCN6],2.68 ± 0.13,3.19 ± 0.056,,
TQMIREGGARSLWRGNGINVLKIA [SLC25A25],2.72 ± 0.25,2.77 ± 0.21,,
FLPVDTSNNNGRIKQLRSGGTPIR [PTPRD],3.33 ± 0.3,3.51 ± 0.063,,
FQVPVLCAVMNVVFITILIIALIA [CD69],2.91 ± 0.36,2.96 ± 0.68,,
NILLKNLVTIARKASLWQFLSSEK [TRIM43],2.17 ± 0.42,2.13 ± 0.18,,
LENRIQREIALAKKHGTQNKRAAL [CHMP4C],4.09 ± 0.26,4.04 ± 0.25,,
ETVQTWIELLTGETWNPFKLQYQL [GOLPH3L],2.65 ± 0.6,2.74 ± 0.71,,
VSTFLSGVMLTWPDGLMYQKFRNQ [TMEM120A],2.85 ± 0.82,2.36 ± 0.54,,
SSLEEIVEKQGDTIEYLKRHNALL [TMEM192],3.82 ± 0.38,3.92 ± 0.16,,
VRELVDKATNVVMNYSEIESKVRE [CLINT1],4 ± 0.38,3.8 ± 0.37,,
QNQSDSLLALAGAVQRLEGALWGL [SCARA5],2.4 ± 0.35,2.33 ± 0.32,,
LLEGTPSSASEGDEDLRRQMQDDE [PALM],5.45 ± 0.25,5.49 ± 0.28,,
GEGKLSKRLKHKDDSVMKATQQAR [C22orf31],4.64 ± 0.21,4.81 ± 0.22,,

Sequence,protein stability index [1],protein stability index [2],protein stability index [3],protein stability index [4]
SRLLLLEQELKTVTYSLLKRLKER [SMAD6],2.77 ± 0.34,2.55 ± 0.49,,
DGITNGASWYSLSKGMQDFNYLHT [CPN1],2.35 ± 0.13,2.43 ± 0.22,,
FTLASSSDTRVGAPATGSGTPGPF [CHIT1],3.73 ± 0.19,3.84 ± 0.39,,
APALPPGGTDPHGYHQVPGSAAPG [FOXJ1],5.16 ± 0.18,5.38 ± 0.4,,
PGITRVYSIGRSVEGRHLYVLEFS [CPN1],3.12 ± 0.91,2.81 ± 0.63,,
SAGEQKTERMDKVGDALEEVLSKA [GADD45A],5.58 ± 0.18,5.41 ± 0.26,,
CGSQLSSTKGSRSNLSTRDASILT [NETO1],2.62 ± 0.2,2.65 ± 0.21,,
EVSSIQVRRKPQHGVCSQLLGNYR [SERPINB9P1],2.84 ± 0.38,2.94 ± 0.29,,
SFVKKNVLVTGGFFGGFLLGMAS [FUNDC2],,,3.64 ± 0.15,2.96 ± 0.41
MVILISIVIFCLETLPELKDDKDF [KCNA1],3.03 ± 0.71,2.72 ± 0.52,,
HPNIITLHDIFENKTDVVLILELV [DAPK3],2.54 ± 0.14,2.34 ± 0.23,,
SAKNTSHPGSGTKVQFNLQFTKPN [SASS6],3.35 ± 0.12,3.61 ± 0.14,,
TGERPYECNECGKAFSRSSGLFNH [ZSCAN9],2.48 ± 0.4,2.6 ± 0.37,,
PRRRRPGCYAYRQNPEAIAAAAMY [MYORG],2.78 ± 0.19,2.9 ± 0.34,,
TLITAVELERFVNLHSLALDFCDF [FBXO33],2.47 ± 0.28,2.95 ± 1.3,,
KLATEAGVEVIVRISHTLYDLDKI [CRY1],2.97 ± 0.32,3.13 ± 0.71,,
NNKKWILSASKDRTMRLWNIEEID [WDR88],2.66 ± 0.12,2.86 ± 0.44,,
VTPKKSPPPKTNLTPGQSDSAKRE [FAN1],5.22 ± 0.33,5.35 ± 0.33,,
ELTFSYIAFDGVVGSGGRRDSTAR [RTN2],3.17 ± 0.079,3.15 ± 0.28,,
PSHSDNLLHGLNLLWRKQLFCDVT [KLHL14],1.96 ± 0.33,2.16 ± 0.3,,
VRKEDMTYAVRKLDNTKFRSHEGE [SRSF1],4.32 ± 0.13,4.13 ± 0.16,,
SSLDLSYYPTSSSTSFMSSSSSSS [EMD],3.99 ± 0.06,3.84 ± 0.34,,
RYLEAEFKKGNRYIRCQKEVGKSF [SMG5],2.57 ± 0.71,2.29 ± 0.21,,

Sequence,protein stability index [1],protein stability index [2],protein stability index [3],protein stability index [4]
LQEPGVFSPTPPQQFQPAGTDQVC [FCHSD1],4.25 ± 0.16,4.45 ± 0.27,,
TGSPARLSLRQTGSPGMIYSTRYG [KCNAB2],3.15 ± 0.45,3.12 ± 0.45,,
KIRPDSSRPELLQPLNFVRFYLPL [GLT8D2],2.19 ± 0.42,2.17 ± 0.18,,
ARKYFERLPGGGWTLRRTKELRKD [DYRK1B],3.66 ± 0.45,3.86 ± 0.44,,
EDQGGLEAVRQEMRRQEPLPPPPP [WAS],5.3 ± 0.15,5.42 ± 0.22,,
LRAIDFGTDEEEEEFIEEEDQEEE [TRIM63],5.63 ± 0.15,5.65 ± 0.13,,
GIFEESFIEERRQGLEQFINKIAG [SNX12],2.98 ± 0.59,2.84 ± 0.32,,
GGLVVSAASLAGCLGALCENTCLL [TSPAN10],2.79 ± 0.57,2.67 ± 0.54,,
LRAQVPFEQILSLPELKANPFKER [CIB1],3.17 ± 0.29,3.1 ± 0.42,,
AVLYPRFMGTISDVKTNVQLLKGR [CD207],2.49 ± 0.11,2.56 ± 0.16,,
ADTKKRHTPRGHAESTSNRQPRKQ [SMOC2],5.34 ± 0.2,5.29 ± 0.15,,
GMDPERLKAFNMFVRLFVDENLDR [NOL4L],2.1 ± 0.42,2.39 ± 0.37,,
LQTLLYFLSDVTAAVKENQMTPTN [DLC1],2.04 ± 0.52,2.12 ± 0.83,,
ELCCVAELDNPMQQKWTKPARAGS [C2CD2L],3.37 ± 0.39,3.6 ± 0.2,,
LVEELSPASEKKPVPPSEGKSRLS [BCL2L13],5.32 ± 0.31,5.46 ± 0.15,,
QQMVASGTGAVVTSLFMTPLDVVK [SLC25A39],2.8 ± 0.17,2.98 ± 0.21,,
HTMEEEEDDDWGEDTTEEAQRRRM [EIF5],5.55 ± 0.35,5.63 ± 0.28,,
SPAAPYFLGSSFSPVRCGGPGDAS [WEE1],3.06 ± 0.3,3.17 ± 0.35,,
PAADGARAPRSPGQVTPRGLRLRL [C6orf223],3.96 ± 0.12,3.97 ± 0.19,,
ESSQTDLKLVAHPRAKSKVWKYFG [ZBED1],3.02 ± 0.31,3.42 ± 0.27,,
GRLLFAGYNDYTINVWDVLKGSRV [GNB5],2.48 ± 0.58,2.18 ± 0.17,,
TTPSTSSSSSFDPSVFDGLGDLLM [SNAP91],3.32 ± 0.21,3.48 ± 0.28,,
QYQANKVTHTLTMRQRISRVEESA [PPEF2],3.65 ± 0.16,3.77 ± 0.16,,

Sequence,protein stability index [1],protein stability index [2],protein stability index [3],protein stability index [4]
NIPMETEETHLEETTESQQNGEEG [SMARCE1],5.39 ± 0.5,5.6 ± 0.21,,
LNGASVLPHKSIGESVPEPRIIM [GMPPB],,,3.65 ± 0.17,3.71 ± 0.14
DGDAPGSLLPAQVAACAQTVVSLA [CEBPD],4.26 ± 0.19,4.12 ± 0.39,,
HLIKHRRTHTGEQPYTCSICRRNF [ZNF75A],2.56 ± 0.28,2.99 ± 0.41,,
AAIGVTTSPVLPSLIQLLGRNFIL [HACD3],2.67 ± 0.19,2.55 ± 0.6,,
MTLEEFSAGEQKTERMDKVGDALE [GADD45A],5.28 ± 0.15,5.36 ± 0.18,,
LQEVLSSDENGGTYVSPPGNEEEE [DDIT3],5.63 ± 0.27,5.42 ± 0.3,,
ITLKYPHYFPVMKKCCIPETRRRM [NLN],2.1 ± 0.27,1.97 ± 0.37,,
PPPELMDVSLVGGPADCSPPHPAP [DYRK1B],5.08 ± 0.22,5.1 ± 0.11,,
LLGLKAFLGLFFIVRFLESNWFVW [FADS1],2.9 ± 0.47,2.31 ± 0.43,,
NKEYIKRLLMSQADKMTAEEVDQM [MYL5],4.53 ± 0.28,4.48 ± 0.23,,
SGLRMVPEHRAFGSPFGLEEPQWV [ZFYVE21],2.8 ± 0.14,2.93 ± 0.26,,
ETKKVLGLQDTITAELVVIEDAAE [PALM],4.92 ± 0.35,4.78 ± 0.32,,
IYVVGGFDGTAHLSSVEAYNIRTD [KLHL12],3.08 ± 0.28,,,
LQLRYSLRILIGDPPHHDHHDEFC [BEX5],2.74 ± 0.54,2.48 ± 0.45,,
QLLSAMGSLCSLWFGASVLSLLEL [SCNN1D],3.2 ± 0.61,3.19 ± 0.49,,
PDHQVPYGHDYPRAAYQQVIQPAL [TRAF3IP2],3.48 ± 0.29,3.56 ± 0.24,,
ALGAPSKSPSSPQAAFTQQGMEGI [TBX5],4.59 ± 0.37,4.51 ± 0.19,,
TNSDVLAQQFALMAPLLFNGCRSG [DCAF4],2.23 ± 0.27,2.14 ± 0.3,,
IDLSAWCYYCQAYVHHQALLDVKN [HDAC6],2.73 ± 0.38,3.08 ± 1.2,,
